# Molecular target: Integration host factor (IHF alpha/beta heterodimer) (Escherichia coli, UniProt P0A6X7;P0A6Y1 SEQ:1-99,SEQ:1-94)
# Assay: footprint; DNase I footprint at 50 nM IHF; hypersensitive site indicative of DNA bending
# Conditions: tags: crystallographically pure IHF, gift of Howard Nash, NIH; no tag stated; label: 32P end label
# Chain of Integration host factor (IHF alpha/beta heterodimer) (P0A6X7 whole entry, chain 1 of 2): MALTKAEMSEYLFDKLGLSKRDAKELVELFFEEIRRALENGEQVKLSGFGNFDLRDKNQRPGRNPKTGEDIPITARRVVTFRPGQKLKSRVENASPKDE
# Chain of Integration host factor (IHF alpha/beta heterodimer) (P0A6Y1 whole entry, chain 2 of 2): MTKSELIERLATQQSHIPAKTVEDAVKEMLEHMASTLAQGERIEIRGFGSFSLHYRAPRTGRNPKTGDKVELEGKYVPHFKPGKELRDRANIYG
binder,measurement,value
386 bp BCAL0339-BCAL0340 intergenic region (T6SS gene cluster upstream) (dsDNA) DNA 1: TCTCAACGATTTA DNA 2: TAAATCGTTGAGA,binding result,binds

# — patent US20160175440A1, “COMPOSITIONS AND METHODS FOR THE […] OF BURKHOLDERIA INFECTIONS” (Research Institute at Nationwide Children's Hospital, published 2016)
